What all share (assay): SPR
On the technique in general: Surface plasmon resonance follows binding to a sensor surface in real time, without labels.

The target of data set [1] is T1, His6-gp1 (Bacillus thuringiensis phage GIL01 …, UniProt Q7WSG8 1-58).
T1 sequence: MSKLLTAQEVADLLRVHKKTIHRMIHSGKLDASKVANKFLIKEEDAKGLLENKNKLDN

Data set [2] concerns the target T1, His6-gp1. The source holds these as a separate data set.
For data set [3], the target named is T1, His6-gp1. The source holds these as a separate data set.

Like-named read-outs stand apart in the source and are kept apart here.

B1: SPR_172Δ355 (cp33.1) 81-bp fragment (dsDNA)
DNA 1: GTTACTACTCGAGCGAAAAGGAAAAGTGTGACAAGATATTCCAAGGGTGCTATAATAGGAAATGAGTAAACTACTGACTGCGCAAGAGGTTGCAGA
DNA 2: TCTGCAACCTCTTGCGCAGTCAGTAGTTTACTCATTTCCTATTATAGCACCCTTGGAATATCTTGTCACACTTTTCCTTTT
DNA 3: CGCTCGAGTAGTAAC
Consider B1, for which the binding result with His6-gp1 [1] is given as “no binding”.

B2: SPR_252Δ262 (cp33.14) 81-bp fragment (dsDNA)
DNA 1: GTTACTACTCGAGCGTGTAATATAAAAACATTTGCATTACTGGTAATATTGGTAGCAGAGAGGGACAAACGGGACAAATCGAGACACGATACATAC
DNA 2: GTATGTATCGTGTCTCGATTTGTCCCGTTTGTCCCTCTCTGCTACCAATATTACCAGTAATGCAAATGTTTTTATATTACA
DNA 3: CGCTCGAGTAGTAAC
On to B2, for which the binding result with His6-gp1 [2] is “binds”.

B3: SPR_wt 81-bp P2 fragment (dsDNA)
DNA 1: GTTACTACTCGAGCGAACATTTGCATTACTGGTAACTTTCGGGTAATATTGGTAGCAGAGAGGGACAAACGGGACAAATCGAGACACGATACATAC
DNA 2: GTATGTATCGTGTCTCGATTTGTCCCGTTTGTCCCTCTCTGCTACCAATATTACCCGAAAGTTACCAGTAATGCAAATGTT
DNA 3: CGCTCGAGTAGTAAC
In the case of B3, the binding result with His6-gp1 [3] was “binds”.

For the origin of these results see paper PMC11511902.
